Results published in patent US20260297144 (published 2026).
Positions count from the first letter of the chain named. Each block holds one binder with its values, some of them ahead of it.

How the values were obtained:
C3b [1] = target: T1, C3b (human, UniProt P01024); experiment: SPR steady state, Fc 4-1, 10C
C3b [2] = target: T1, C3b; experiment: SPR steady state, Fc 2-1, 10C
C3b [3] = target: T1, C3b; experiment: SPR steady state, Fc 3-1, 10C

T1 sequence (P01024 23-667, chain 1 of 2): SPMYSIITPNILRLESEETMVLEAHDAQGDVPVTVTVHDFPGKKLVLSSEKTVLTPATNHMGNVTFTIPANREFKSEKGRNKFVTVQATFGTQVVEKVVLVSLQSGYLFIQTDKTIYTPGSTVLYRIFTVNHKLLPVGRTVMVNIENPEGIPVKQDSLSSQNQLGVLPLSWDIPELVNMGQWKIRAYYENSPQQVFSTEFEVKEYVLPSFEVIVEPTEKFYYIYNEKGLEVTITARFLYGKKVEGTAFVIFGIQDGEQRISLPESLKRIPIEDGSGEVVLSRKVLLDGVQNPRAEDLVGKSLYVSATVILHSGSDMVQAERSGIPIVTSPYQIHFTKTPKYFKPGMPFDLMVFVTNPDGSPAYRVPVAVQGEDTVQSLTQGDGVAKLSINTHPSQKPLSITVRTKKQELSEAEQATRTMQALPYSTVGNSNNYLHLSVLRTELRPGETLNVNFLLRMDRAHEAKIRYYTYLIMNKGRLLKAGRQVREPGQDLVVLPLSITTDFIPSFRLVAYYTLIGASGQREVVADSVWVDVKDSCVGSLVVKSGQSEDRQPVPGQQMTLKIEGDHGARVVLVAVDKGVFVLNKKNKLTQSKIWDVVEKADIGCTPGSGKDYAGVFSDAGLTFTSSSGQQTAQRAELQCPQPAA
T1 sequence (P01024 749-1663, chain 2 of 2): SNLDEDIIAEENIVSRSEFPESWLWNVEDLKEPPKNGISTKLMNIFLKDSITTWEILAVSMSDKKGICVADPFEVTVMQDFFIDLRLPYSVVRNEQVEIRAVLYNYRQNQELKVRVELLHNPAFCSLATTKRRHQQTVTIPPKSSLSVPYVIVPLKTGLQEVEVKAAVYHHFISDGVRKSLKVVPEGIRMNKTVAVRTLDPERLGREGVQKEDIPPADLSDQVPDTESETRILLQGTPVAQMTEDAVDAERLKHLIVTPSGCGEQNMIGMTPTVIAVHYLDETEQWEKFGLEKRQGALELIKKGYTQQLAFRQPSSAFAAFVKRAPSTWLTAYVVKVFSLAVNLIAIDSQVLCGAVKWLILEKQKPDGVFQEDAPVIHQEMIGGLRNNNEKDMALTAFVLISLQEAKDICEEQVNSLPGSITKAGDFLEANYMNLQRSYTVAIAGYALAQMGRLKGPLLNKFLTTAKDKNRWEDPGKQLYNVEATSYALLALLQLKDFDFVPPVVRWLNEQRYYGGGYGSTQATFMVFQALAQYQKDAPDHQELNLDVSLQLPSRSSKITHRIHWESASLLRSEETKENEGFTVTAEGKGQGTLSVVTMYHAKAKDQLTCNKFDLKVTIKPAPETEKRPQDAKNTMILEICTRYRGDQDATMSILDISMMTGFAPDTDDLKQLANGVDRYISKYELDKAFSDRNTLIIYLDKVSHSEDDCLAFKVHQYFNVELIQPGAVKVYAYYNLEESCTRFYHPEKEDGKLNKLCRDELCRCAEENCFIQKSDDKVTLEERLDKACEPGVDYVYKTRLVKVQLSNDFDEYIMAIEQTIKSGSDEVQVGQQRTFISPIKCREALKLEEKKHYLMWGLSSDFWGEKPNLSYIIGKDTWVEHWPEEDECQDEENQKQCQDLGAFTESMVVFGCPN

Kd (C3b [1]): 51 nM | Kd (C3b [2]): 48.2 nM | Kd (C3b [3]): 42.9 nM
B1: Sial-moss FH (protein)
chain: EDCNELPPRRNTEILTGSWSDQTYPEGTQAIYKCRPGYRSLGNIIMVCRKGEWVALNPLRKCQKRPCGHPGDTPFGTFTLTGGNVFEYGVKAVYTCNEGYQLLGEINYRECDTDGWTNDIPICEVVKCLPVTAPENGKIVSSAMEPDREYHFGQAVRFVCNSGYKIEGDEEMHCSDDGFWSKEKPKCVEISCKSPDVINGSPISQKIIYKENERFQYKCNMGYEYSERGDAVCTESGWRPLPSCEEKSCDNPYIPNGDYSPLRIKHRTGDEITYQCRNGFYPATRGNTAKCTSTGWIPAPRCTLKPCDYPDIKHGGLYHENMRRPYFPVAVGKYYSYYCDEHFETPSGSYWDHIHCTQDGWSPAVPCLRKCYFPYLENGYNQNYGRKFVQGKSIDVACHPGYALPKAQTTVTCMENGWSPTPRCIRVKTCSKSSIDIENGFISESQYTYALKEKAKYQCKLGYVTADGETSGSITCGKDGWSAQPTCIKSCDIPVFMNARTKNDFTWFKLNDTLDYECHDGYESNTGSTTGSIVCGYNGWSDLPICYERECELPKIDVHLVPDRKKDQYKVGEVLKFSCKPGFTIVGPNSVQCYHFGLSPDLPICKEQVQSCGPPPELLNGNVKEKTKEEYGHSEVVEYYCNPRFLMKGPNKIQCVDGEWTTLPVCIVEESTCGDIPELEHGWAQLSSPPYYYGDSVEFNCSESFTMIGHRSITCIHGVWTQLPQCVAIDKLKKCKSSNLIILEEHLKNKKEFDHNSNIRYRCRGKEGWIHTVCINGRWDPEVNCSMAQIQLCPPPPQIPNSHNMTTTLNYRDGEKVSVLCQENYLIQEGEEITCKDGRWQSIPLCVEKIPCSQPPQIEHGTINSSRSSQESYAHGTKLSYTCEGGFRISEENETTCYMGKWSSPPQCEGLPCKSPPEISHGVVAHMSDSYQYGEEVTYKCFEGFGIDGPAIAKCLGEKWSHPPSCIKTDCLSLPSFENAIPMGEKKDVYKAGEQVTYTCATYYKMDGASNVTCINSRWTGRPTCRDTSCVNPPTVQNAYIVSRQMSKYPSGERVRYQCRSPYEMFGDEEVMCLNGNWTEPPQCKDSTGKCGPPPPIDNGDITSFPLSVYAPASSVEYQCQNLYQLEGNKRITCRNGQWSEPPKCLHPCVISREIMENYNIALRWTAKQKLYSRTGESVEFVCKRGYRLSSRSHTLRTTCWDGKLEYPTCAKR

Kd (C3b [1]): 144 nM | Kd (C3b [2]): 110 nM | Kd (C3b [3]): 104 nM
B2: Serum derived FH (sd-FH) (protein)
chain: B1 chain with I44V
